Source: patent publication US10334848B2, “Methods and compositions for weed control using EPSPS polynucleotides” (Monsanto Technology LLC, priority 2014, dated 2019)

B1: SEQ ID NO 5/6: dsRNA trigger: 53mer EPSPS Trigger (SEQ ID NO 5) and Reverse Complement (SEQ ID NO 6), positions 1189-1241 of Amaranthus palmeri EPSPS cDNA (nucleic acid)
sense: GACGUCAACAUGAACAAAAUGCCAGAUGUUGCUAUGACUCUUGCAGUUGUUGC
antisense: GCAACAACUGCAAGAGUCAUAGCAACAUCUGGCAUUUUGUUCAUGUUGACGUC
modifications: double-stranded RNA trigger, further chemistry not given here
B2: SEQ ID NO 3/4: dsRNA trigger: 50mer EPSPS Trigger (SEQ ID NO 3) and Reverse Complement (SEQ ID NO 4), positions 398-447 of Amaranthus palmeri EPSPS cDNA (nucleic acid)
sense: GAACUCUUGGUUUAAAAGUGGAGGAUGAUAGUACAGCCAAAAGGGCAGUC
antisense: GACUGCCCUUUUGGCUGUACUAUCAUCCUCCACUUUUAAACCAAGAGUUC
modifications: double-stranded RNA trigger, further chemistry not given here

Tests used:
[1] = test system: glyphosate-resistant Amaranthus palmeri plants (“R-22”); experiment: Sensitization of glyphosate-resistant Palmer amaranth to glyphosate by topical dsRNA trigger, then WEATHERMAX glyphosate; type: in vivo; conditions: glyphosate 1.5 lb/ac one day after, four replications
Experimental: Double stranded RNA (dsRNA) triggers comprising polynucleotide sequences of SEQ ID NOs: 3 and 4, SEQ ID NOs: 5 and 6, and SEQ ID NOs: 7 and 8 were produced and the triggers were formulated with 0.5% SILWET® L-77, 2% AMS, and 20 mM phosphate buffer to the desired concentration. The trigger formulations were then topically applied to the leaves of glyphosate-resistant Amaranthus palmeri plants (“R-22”). Control plants were either untreated or treated with the 0.5% SILWET® L-77, 2% AMS, and 20 mM phosphate buffer solution. One day after treatment, WEATHERMAX® brand glyphosate herbicide (RU Wmax, Monsanto, St Louis, Mo.) was applied to the plants at 1.5 lb/ac. 11 days after treatment (DAT) with EPSPS trigger polynucleotides the percent growth reduction of the dsRNA treated plants was assessed relative to untreated control plants by visual score. At 14 DAT the fresh weight of the dsRNA treated and control plants were determined. Four replications were performed per treatment. […] See also FIG. 1.

[2] = test system: glyphosate-resistant Waterhemp plants (“WH13”); conditions: stated as known; cited from earlier work
[3] = test system: glyphosate-resistant Waterhemp (Amaranthus rudis); experiment: Sensitization of glyphosate-resistant Waterhemp to glyphosate by topical dsRNA trigger (Example 3); type: in vivo; conditions: 8 nmol trigger; glyphosate 1.5 lb/ac one day after; 14 DAT; compared to plants treated with glyphosate alone
Experimental: The efficacies of mid-sized polynucleotide trigger molecules comprising SEQ ID NOs: 3 and 4 or SEQ ID NOs: 5 and 6, were assessed in glyphosate-resistant Waterhemp (Amaranthus rudis) in relation to a 24-mer trigger comprising SEQ ID NOs: 7 and 8. dsRNA triggers comprising polynucleotide sequences of SEQ ID NOs: 3 and 4, SEQ ID NOs: 5 and 6, and SEQ ID NOs: 7 and 8 were produced and the triggers were each formulated with 0.5% SILWET® L-77, 2% AMS, and 20 mM phosphate buffer to a concentration of 8 nmol. The trigger formulations were then topically applied to the leaves of glyphosate-resistant Waterhemp. Control plants were either untreated or treated with a solution of 0.5% SILWET® L-77, 2% AMS, and 20 mM phosphate buffer. One day after treatment with the trigger formulation, WEATHERMAX® brand glyphosate herbicide was applied to the plants at 1.5 lb/ac. Four replications were performed per treatment. The fresh weight of the plants was determined 14 DAT with EPSPS trigger polynucleotides and the fresh weight % compared to control plants (treated with WEATHERMAX® brand glyphosate herbicide alone) was calculated.

[4] = test system: glyphosate-resistant Amaranthus palmeri plants (“R-22”); conditions: stated as known; cited from earlier work
[5] = test system: glyphosate-resistant Waterhemp plants (“WH13”); experiment: Tiling of EPSPS cDNA: dsRNA trigger testing with glyphosate, fresh weight (Example 7, FIG. 4); type: in vivo; conditions: 8 nmol trigger, glyphosate 1.5 lb/ac one day after, 14 days after treatment, three replications
Experimental: The EPSPS cDNA of SEQ ID NO: 1 was tiled across the entire length of the cDNA to identify target sequences for bioactive trigger polynucleotides covering as shown in Table 5. The target nucleotide sequence were chosen to be approximately 47-62 bp in length. Bioactive trigger polynucleotides comprising a nucleotide sequence having at least 85% identity or complementarity to SEQ ID NOs: 36-66 were tested for the ability to sensitize glyphosate-resistant Waterhemp to glyphosate.
Double stranded RNA (dsRNA) triggers comprising polynucleotide sequences corresponding to SEQ ID NOs: 36-62 were produced and the bioactive trigger polynucleotides were formulated with 0.5% SILWET® L-77, 2% AMS, and 20 mM phosphate buffer to a final concentration of 8 nmol. The trigger formulations were then topically applied to the leaves of glyphosate-resistant Waterhemp plants (“WH13”). Control plants were either untreated or treated with the formulation 0.5% SILWET® L-77, 2% AMS, and 20 mM phosphate “buffer” solution. Additionally dsRNA comprising SEQ ID NOs: 7 and 8 (24-mer EPSPS trigger) was applied as a control. One day after treatment, WEATHERMAX® brand glyphosate herbicide (RU Wmax, Monsanto, St Louis, Mo.) was applied to the plants at 1.5 lb/ac.
Three replications were performed per treatment.

EPSPS mRNA = EPSPS mRNA reduction in Palmer protoplasts; type: cell-based; conditions: 6 ug dose of dsRNA trigger; Amaranthus palmeri protoplasts; FIG. 2
Experimental: The activities of mid-sized bioactive polynucleotide trigger molecules corresponding to SEQ ID NOs: 3 and 4 or SEQ ID NOs: 5 and 6 were assessed in Amaranthus palmeri protoplasts. A 6 ug dose of each dsRNA trigger (SEQ ID NO 3/4 or SEQ ID NO 5/6) was added to Amaranthus palmeri protoplasts.

[6] = test system: glyphosate-resistant Waterhemp plants (“WH13”); experiment: Sensitization of glyphosate-resistant Waterhemp WH13 to glyphosate, 2-16 nmol trigger (Example 5, FIG. 3); type: in vivo; conditions: 2, 4, 8 or 16 nmol trigger, glyphosate 1.5 lb/ac one day after, plants at 14 days after treatment
Experimental: The efficacies of mid-sized bioactive polynucleotide trigger molecules
Double stranded RNA (dsRNA) triggers comprising polynucleotide sequences of SEQ ID NOs: 3 and 4, SEQ ID NOs: 5 and 6, and SEQ ID NOs: 7 and 8 were produced and the bioactive trigger polynucleotides were formulated with 0.5% SILWET® L-77, 2% AMS, and 20 mM phosphate buffer to a concentration of 2 nmol, 4 nmol, 8 nmol or 16 nmol. The trigger formulations were then topically applied to the leaves of glyphosate-resistant Waterhemp plants (“WH13”). Control plants were either untreated or treated with the 0.5% SILWET® L-77, 2% AMS, and 20 mM phosphate buffer solution. One day after treatment, WEATHERMAX® brand glyphosate herbicide (RU Wmax, Monsanto, St Louis, Mo.) was applied to the plants at 1.5 lb/ac. Four replications were performed per treatment.

Molecule | visual 11-DAT Average (percent growth reduction relative to untreated control plants by visual score) ([1]; 2 nmole trigger) [%] | Fresh weight 14-DAT Average ([1]; 2 nmole trigger) | visual 11-DAT Average (percent growth reduction relative to untreated control plants by visual score) ([1]; 4 nmole trigger) [%] | Fresh weight 14-DAT Average ([1]; 4 nmole trigger) | visual 11-DAT Average (percent growth reduction relative to untreated control plants by visual score) ([1]; 8 nmole trigger) [%] | Fresh weight 14-DAT Average ([1]; 8 nmole trigger) | visual 11-DAT Average (percent growth reduction relative to untreated control plants by visual score) ([1]; 16 nmole trigger) [%] | Fresh weight 14-DAT Average ([1]; 16 nmole trigger) | sensitization of glyphosate-resistant Waterhemp to glyphosate, prior knowledge (in words) [2] | % Control Fresh wt. average [3] [%] | sensitization of glyphosate-resistant Palmer amaranth to glyphosate, prior knowledge (in words) [4] | efficacy in sensitizing glyphosate-resistant Waterhemp to glyphosate (in words, from fresh weight) [5] | EPSPS mRNA reduction vs. control (EPSPS mRNA) [%] | sensitization of glyphosate-resistant Waterhemp plants to glyphosate (in words) [6]
SEQ ID NO 7/8: dsRNA 24mer EPSPS Trigger (SEQ ID NO 7) and Reverse Complement (SEQ ID NO 8), known to sensitize glyphosate-resistant weeds; control (sense AUGCCAGAUGUUGCUAUGACUCUU; antisense AAGAGUCAUAGCAACAUCUGGCAU; listed as RNA, chemistry not given here) [reference compound] | 47.5 | 19.0 | 88.8 | 95.3 | 90.0 | 91.8 | 85.8 | 93.7 | known to sensitize glyphosate-resistant Waterhemp to glyphosate | 85 | known to sensitize glyphosate-resistant Palmer amaranth to glyphosate | – | – | –
B1 | 48.8 | 18.2 | 41.3 | 94.0 | 93.8 | 96.2 | 81.3 | 90.7 | – | 83 | – | good efficacy | 84 | sensitize glyphosate-resistant Waterhemp plants to glyphosate
B2 | 46.3 | 24.0 | 28.8 | 94.7 | 88.3 | 88.4 | 90.0 | 97.0 | – | 78 | – | good efficacy | 69 | sensitize glyphosate-resistant Waterhemp plants to glyphosate
